T1: human arginase 1, trimeric (full-length untagged hArg1 expressed in E. coli) (human, UniProt P05089 1-322)
T1 sequence: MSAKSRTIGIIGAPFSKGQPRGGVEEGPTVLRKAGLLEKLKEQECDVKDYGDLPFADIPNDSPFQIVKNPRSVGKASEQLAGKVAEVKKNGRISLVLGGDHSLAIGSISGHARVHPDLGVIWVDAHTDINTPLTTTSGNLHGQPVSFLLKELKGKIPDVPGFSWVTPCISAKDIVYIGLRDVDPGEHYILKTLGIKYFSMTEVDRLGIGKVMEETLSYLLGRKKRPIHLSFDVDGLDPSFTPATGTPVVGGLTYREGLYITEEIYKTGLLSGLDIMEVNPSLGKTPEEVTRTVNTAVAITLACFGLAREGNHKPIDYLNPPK


Target: T1, human arginase 1, trimeric (full-length …)
Assay: cell-based or functional assay

Binder | IC50 (% inhibition of hArg1 activity, arginine to ornithine by LC-MS) [nM]
Antibody mAb1 (chimeric: human VH1 and VL on a mouse IgG2a/kappa constant domain backbone) (antibody) heavy: QVQLVQSGAEVKKPGASVKVSCKASGYTFTNYGISWVRQAPGQGLEWMGWISAYNGNTNYAQKLQGRVTMTTDTSTSTAYMELRSLRSDDTAVYYCAREGAYGYRSPYHNWFDPWGQGTLVTVSSAKTTAPSVYPLAPVCGDTTGSSVTLGCLVKGYFPEPVTLTWNSGSLSSGVHTFPAVLQSDLYTLSSSVTVTSSTWPSQSITCNVAHPASSTKVDKKIEPRGPTIKPCPPCKCPAPNLLGGPSVFIFPPKIKDVLMISLSPIVTCVVVDVSEDDPDVQISWFVNNVEVHTAQTQTHREDYNSTLRVVSALPIQHQDWMSGKEFKCKVNNKDLPAPIERTISKPKGSVRAPQVYVLPPPEEEMTKKQVTLTCMVTDFMPEDIYVEWTNNGKTELNYKNTEPVLDSDGSYFMYSKLRVEKKNWVERNSYSCSVVHEGLHNHHTTKSFSRTPGK light: EIVMTQSPATLSLSPGERATLSCRASQSVSSYLAWYQQKPGQAPRLLIYDASNRATGIPARFSGSGSGTDFTLTISSLEPEDFAVYYCQQHSLLPRTFGGGTKVEIKRTVAAPTVSIFPPSSEQLTSGGASVVCFLNNFYPKDINVKWKIDGSERQNGVLNSWTDQDSKDSTYSMSSTLTLTKDEYERHNSYTCEATHKTSTSPIVKSFNRNEC | 3.3
Antibody mAb2 (chimeric: human VH1 and VL on a mouse IgG1 D265A/kappa constant domain backbone) (antibody) heavy: QVQLVQSGAEVKKPGASVKVSCKASGYTFTNYGISWVRQAPGQGLEWMGWISAYNGNTNYAQKLQGRVTMTTDTSTSTAYMELRSLRSDDTAVYYCAREGAYGYRSPYHNWFDPWGQGTLVTVSSAKTTPPSVYPLAPGSAAQTNSMVTLGCLVKGYFPEPVTVTWNSGSLSSGVHTFPAVLQSDLYTLSSSVTVPSSTWPSETVTCNVAHPASSTKVDKKIVPRDCGCKPCICTVPEVSSVFIFPPKPKDVLTITLTPKVTCVVVAISKDDPEVQFSWFVDDVEVHTAQTQPREEQFNSTFRSVSELPIMHQDWLNGKEFKCRVNSAAFPAPIEKTISKTKGRPKAPQVYTIPPPKEQMAKDKVSLTCMITDFFPEDITVEWQWNGQPAENYKNTQPIMDTDGSYFVYSKLNVQKSNWEAGNTFTCSVLHEGLHNHHTEKSLSHSPGK light: EIVMTQSPATLSLSPGERATLSCRASQSVSSYLAWYQQKPGQAPRLLIYDASNRATGIPARFSGSGSGTDFTLTISSLEPEDFAVYYCQQHSLLPRTFGGGTKVEIKRTVAAPTVSIFPPSSEQLTSGGASVVCFLNNFYPKDINVKWKIDGSERQNGVLNSWTDQDSKDSTYSMSSTLTLTKDEYERHNSYTCEATHKTSTSPIVKSFNRNEC | 5.3
